# The DeepSol protein solubility set
# Experiment: soluble on expression in E. coli; label from the status in PepcDB or PDB records
row,Sequence,soluble on expression in E. coli
1,MSLGSLVIKKSIIAALVVALGIAGQSVQAESVPDETLQSEKVQTEKVQAEKTETDLFSPVEQIMNPFYPKYPPTKPATGEQAELIKRGEYLAKMGDCIACHTDVEGGTPAYAGGLPINTPFGLFYSPNITPDKETGIGNWTEKDFIRALKDGRDPKGRNYFPVFPYVYFSKITDDDARALYAYFMSIPPVKLKNKSLPFPFGVPGARFALWGWNLLFFFPQENSIEYDPDKSPEWNRGRYIVDTLGHCSMCHTPMNIFGSAKNRYYLTGSFIDGYWAPNITKYGLESASHQEVADVFKAGELINKAGPVAGPMAEVNHNSLSHLTEEDRLAIATYLKTVESEEYLGVSPSDLPPSVARGRQVYLKACLICHKDNKMGAPVIGDSASWYTRLKNSGLTGLYRHAIYGYNQMPVKGACVTCSDNDIISAVDYLLNASLTRSQWQDLASGGVKKYPASGKAVYNENCAVCHNEGKLGAPKIGDKVTWKPLIAQNMDVLIENTIRGKNHLPNGGCNHCSTDEVIEAIKYMVSQSKTEGNYSLWEGHHHHHH,not soluble
2,MTEDRNFDDIAHKFAKNIYGSDKGEIRQVIVWEDLEQLLSQLDTQKVPLHVLDAGGGLAQVSQKIARLGHRVTLCDLSSEMLQLAEQDIANNGLLEQYRFVHSPVQTIQAHLDAPVDLVLFHAVMEWLAEPKPALQNLLAQVRPGGMVSVMFYNYHGLVYKNAVCGNIPHVLEDMPHRKRFKLQPQKGLLPEEVYQWIEESSFEICGKSGIRCFSDYIGNMKNMGEYQYEDLVALERKFCRQEPYLSLGRYIHVWAKKKQ,not soluble
3,MRGSHHHHHHTDPALRASVKVIVTDMDGTFLNDAKTYNQPRFMAQYQELKKRGIKFVVASGNQYYQLISFFPELKDEISFVAENGALVYEHGKQLFHGELTRHESRIVIGELLKDKQLNFVACGLQSAYVSENAPEAFVALMAKHYHRLKPVKDYQEIDDVLFKFSLNLPDEQIPLVIDKLHVALDGIMKPVTSGFGFIDLIIPGLHKANGISRLLKRWDLSPQNVVAIGDSGNDAEMLKMARYSFAMGNAAENIKQIARYATDDNNHEGALNVIQAVLDNTSPFNSGLCGR,soluble
4,MGSDKIHHHHHHMSSIIAALTYFFKEVLVFVSYVKNNAFPQPLSKEEERHYLKRMAEGDEEARNRLIEHNLRLVAHIVKKFENTREHTEDLISIGTIGLIKAIESFSEGKGTKLATYAARCIENEILMHLRALKKVKKDVSLHDPIGTDKEGNEITLIDVLQEDSEDIADSIQLKMEKKQIYEYIHVLDDREKEVIVGRFGLDLEEERTQREIAKELGISRSYVSRIEKRALMKLFHEFYKHNHGKG,not soluble
5,MQTQKPVFSEVTVHDPSIIKANGTYYVFGSHLASAKSTDLMNWTQISSSVHDGNPLIPNVYEELKETFEWAESDTLWAPDVTQLEDGKFYMYYNACRGDSPRSALGLAVADDIEGPYKNKGIFLKSGMDGISNDGTPYDATKHPNVVDPHTFFDQNGKLWMVYGSYSGGIFILEMDKKTGFPLPGQGYGKKLIGGNHSRIEGAYILYHPETQYYYLYMSFGGLAADGGYNIRVARSKNPDGPYYDAEGHAMIDVRGKEGTLFDDRSIEPYGVKLMGNFSFNNKNGYVSPGHNSAFYDEKSGKSYLIFHTRFPGRGEEHEVRVHQLLMNKQGWPVVAPHRYAGEKLEKVKKSDVIGDYELVRHGKDISADIKESKEIRLNQNGKITGAVAGTWKNTGHNKIELKIDGKTYDGVFLRQWDAASERKVMTFSALSREGDAVWGSSLKRAEFLEHHHHHH,soluble
6,NKSDMNHFMQVLRYLDPIHYLKATNDNGFPMSRMYSNQTVTIGGTITQPLPFKPDGENNVKLQRVVAKLDVNIVEGVENLQKIELCNANVHYRLVPNQSEPIQFYGPVELRRVGTTNQWLGYMPEAIVESTKWWGNTGNAENKPINFFRLTTRGGLVYDVPIITHEGAIPGGQYLPFAKGLLADKPSYTVYRNRHYIYRIKTLPDKIEVKYSICDWNIVTNDTYMGYGYNVGVDEQGNVTITNTMQNCDPHVVRLVAKNGAYFGSQPTDTSVEFAELANGASQTFKVNKDAVAVGSAYLEVYYNPDPNATGVVPDKVFIKK,not soluble
7,MGLVGLHSGTIDMEFIGVEDHGDEEGKQIAVSVISSGKNADKTEDPDSLIFTGFGGTDMYHGQPCNQKLERLNIPLEAAFRKKSIVRVVRCMKDEKRTNGNIYIYDGTYMITNRWEEEGQNGFIVFKFKLVREPDQKPAFGIWKSIQNWRNGLSIRPGLILEDLSNGAENLKVCLVNEVDKENGPALFRYVTSLIHEVINNIPSMVDRCACGRRSCGSKHVFREKLSVSSSLVISAKKSGNVARFMNHSCSPNVFWQSIAREQNGLWCLYIGFFAMKHIPPLTELRYDYGKSRGGGKKMCLCRTKKCCGSFG,soluble
